For this test, the target named is T1, mouse LPL (p.R324A) (mouse, UniProt P11152 28-474, p.R324A).
T1 sequence (looked up): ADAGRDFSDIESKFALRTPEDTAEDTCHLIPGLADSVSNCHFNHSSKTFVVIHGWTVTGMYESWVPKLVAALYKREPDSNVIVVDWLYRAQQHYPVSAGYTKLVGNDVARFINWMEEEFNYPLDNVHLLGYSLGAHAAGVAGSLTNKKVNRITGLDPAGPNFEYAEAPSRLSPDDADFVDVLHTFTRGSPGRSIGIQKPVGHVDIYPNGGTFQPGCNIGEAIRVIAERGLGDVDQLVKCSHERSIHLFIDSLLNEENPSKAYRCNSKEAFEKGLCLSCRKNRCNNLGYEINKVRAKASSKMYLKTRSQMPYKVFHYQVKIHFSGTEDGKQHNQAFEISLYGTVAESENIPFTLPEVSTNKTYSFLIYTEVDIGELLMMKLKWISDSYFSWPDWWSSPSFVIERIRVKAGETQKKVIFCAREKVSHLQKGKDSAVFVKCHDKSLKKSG
As to the kind of experiment: native gel or EMSA. In general terms: A gel shift assay detects complexes by their altered migration in electrophoresis.

B1: recombinant human GPIHBP1, soluble (residues 1-131) (domain or fragment, UniProt Q8IV16 21-151, looked up)
chain: QTQQEEEEEDEDHGPDDYDEEDEDEVEEEETNRLPGGRSRVLLRCYTCKSLPRDERCNLTQNCSHGQTCTTLIAHGNTESGLLTTHSTWCTDSCQPITKTVEGTQVTMTCCQSSLCNVPPWQSSRVQDPTG
As for B1, the binding result is “binds”.

For the origin of these results see PMC11017283 (Journal of Lipid Research, 2024).
